# B1: annexin I (protein)
# chain: AMVSEFLKQAWFIENEEQEYVQTVKSSKGGPGSAVSPYPTFNPSSDVAALHKAIMVKGVDEATIIDILTKRNNAQRQQIKAAYLQETGKPLDETLKKALTGHLEEVVLALLKTPAQFDADELRAAMKGLGTDEDTLIEILASRTNKEIRDINRVYREELKRDLAKDITSDTSGDFRNALLSLAKGDRSEDFGVNEDLADSDARALYEAGERRKGTDVNVFNTILTTRSYPQLRRVFQKYTKYSKHDMNKVLDLELKGDIEKCLTAIVKCATSKPAFFAEKLHQAMKGVGTRHKALIRIMVSRSEIDMNDIKAFYQKMYGISLCQAILDETKGDYEKILVALCGGN
# Target: recombinant full-length delta PKC (rat)
# Assay: ELISA, both in the absence and in the presence of calcium
binder,measurement,value
B1,percent binding,70%

# — patent US20090155236A1, “Peptide sequence for modulation of delta protein kinase c” (NATIONAL INSTITUES OF HEALTH (NIH), U.S. DEPT OF HEALTH AND …, priority 2004, published 2009)
